Publication PMC7939477

Target: PdGH110B (GH110 family α-1,3-galactosidase from Pseudoalteromonas distincta U2A) (Pseudoalteromonas distincta U2A)
Test: dynamic light scattering; PdGH110B in solution at protein concentrations of 0.18, 0.37 and 0.73 mg/ml; monomer to dimer

For “PdGH110B (GH110 family α-1,3-galactosidase from Pseudoalteromonas distincta U2A) (enzyme)”, the stoichiometry N was 2.
